Assay results published in PMC5468090.

Columns and labels:
Assay in all cases: SPR
XRCC4-Asp;XLF-Asp = conditions: 1 uM each; koff_fast 4-fold faster than WT-WT; EMSA: 10 mM HEPES pH 8, 75 mM KCl, 0.5 mM EDTA, 0.5 mM DTT, 5% glycerol, RT 30 min, 200 ng DNA/10 ul; SPR: 20 mM HEPES pH 8, 75 mM KCl, 10% glycerol, 1 mM DTT …
XRCC4-Ala;XLF-Ala = conditions: 1 uM each; described as similar to WT-WT; EMSA: 10 mM HEPES pH 8, 75 mM KCl, 0.5 mM EDTA, 0.5 mM DTT, 5% glycerol, RT 30 min, 200 ng DNA/10 ul; SPR: 20 mM HEPES pH 8, 75 mM KCl, 10% glycerol, 1 mM DTT …
XRCC4-WT;XLF-Ala = conditions: 1 uM each; described as similar to WT-WT; EMSA: 10 mM HEPES pH 8, 75 mM KCl, 0.5 mM EDTA, 0.5 mM DTT, 5% glycerol, RT 30 min, 200 ng DNA/10 ul; SPR: 20 mM HEPES pH 8, 75 mM KCl, 10% glycerol, 1 mM DTT …
XRCC4-WT;XLF-WT = conditions: 1 uM each; EMSA: 10 mM HEPES pH 8, 75 mM KCl, 0.5 mM EDTA, 0.5 mM DTT, 5% glycerol, RT 30 min, 200 ng DNA/10 ul; SPR: 20 mM HEPES pH 8, 75 mM KCl, 10% glycerol, 1 mM DTT …
XRCC4-Ala;XLF-WT = conditions: 1 uM each; described as similar to WT-WT; EMSA: 10 mM HEPES pH 8, 75 mM KCl, 0.5 mM EDTA, 0.5 mM DTT, 5% glycerol, RT 30 min, 200 ng DNA/10 ul; SPR: 20 mM HEPES pH 8, 75 mM KCl, 10% glycerol, 1 mM DTT …

Substance: 400 bp SPR DNA
- binding signal (fold equilibrium affinity vs WT-WT) (XRCC4-Asp;XLF-Asp): 0.25
- binding signal (fold equilibrium affinity vs WT-WT) (XRCC4-Ala;XLF-Ala): 1
- binding signal (fold equilibrium affinity vs WT-WT) (XRCC4-WT;XLF-Ala): 1
- binding signal (fold equilibrium affinity (reference)) (XRCC4-WT;XLF-WT): 1
- binding signal (fold equilibrium affinity vs WT-WT) (XRCC4-Ala;XLF-WT): 1
